Biological target: F-actin (rabbit skeletal muscle actin filaments) (rabbit, UniProt P68135 1-377)
Assay: co-sedimentation

B1: dephosphorylated synapsin I (natural protein)
chain: not shown
- Kd: 2000 nM

B2: synapsin I phosphorylated on all three sites (natural protein)
chain: not shown
modifications: phosphorylated on all three sites (sites 1, 2 and 3); 2.6 mol phosphate/mol synapsin I
- Kd: 1800 nM

Source: PMC2115537 (The Journal of Cell Biology, 1989)
